In patent US20110020344A1 (US Dept. of Health and Human Services, published 2011):

T1: Soluble CD22 (PeproTech) (human, UniProt P20273 20-687, limits assumed)
T1 construct: Bought from PeproTech; also called sCD22; soluble CD22 purified from mammalian cells
T1 sequence: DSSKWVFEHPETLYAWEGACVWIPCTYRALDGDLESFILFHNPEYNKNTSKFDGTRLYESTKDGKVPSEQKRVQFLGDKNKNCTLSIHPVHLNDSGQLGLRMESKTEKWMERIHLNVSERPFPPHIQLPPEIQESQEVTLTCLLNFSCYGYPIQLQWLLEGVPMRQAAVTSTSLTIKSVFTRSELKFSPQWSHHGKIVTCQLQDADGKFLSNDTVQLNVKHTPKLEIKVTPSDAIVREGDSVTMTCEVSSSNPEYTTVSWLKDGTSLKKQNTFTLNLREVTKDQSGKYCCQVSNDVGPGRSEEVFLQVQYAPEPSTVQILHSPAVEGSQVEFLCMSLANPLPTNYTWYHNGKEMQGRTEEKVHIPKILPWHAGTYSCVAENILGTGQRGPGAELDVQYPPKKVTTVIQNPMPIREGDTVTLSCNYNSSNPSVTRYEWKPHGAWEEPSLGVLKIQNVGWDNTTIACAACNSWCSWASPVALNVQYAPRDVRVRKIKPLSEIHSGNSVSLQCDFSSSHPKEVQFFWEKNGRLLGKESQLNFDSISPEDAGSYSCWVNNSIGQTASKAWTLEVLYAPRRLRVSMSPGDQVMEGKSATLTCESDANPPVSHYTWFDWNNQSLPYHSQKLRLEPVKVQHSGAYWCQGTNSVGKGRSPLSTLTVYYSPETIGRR

T2: native, cell surface-associated CD22 on B lymphoma cell lines (Raji, BJAB, ST486) (human, UniProt P20273 20-847)
T2 construct: Endogenous CD22 of Raji, BJAB and ST486 cells; the cell line is named under assay; also called cell surface CD22; cell-associated CD22
T2 sequence: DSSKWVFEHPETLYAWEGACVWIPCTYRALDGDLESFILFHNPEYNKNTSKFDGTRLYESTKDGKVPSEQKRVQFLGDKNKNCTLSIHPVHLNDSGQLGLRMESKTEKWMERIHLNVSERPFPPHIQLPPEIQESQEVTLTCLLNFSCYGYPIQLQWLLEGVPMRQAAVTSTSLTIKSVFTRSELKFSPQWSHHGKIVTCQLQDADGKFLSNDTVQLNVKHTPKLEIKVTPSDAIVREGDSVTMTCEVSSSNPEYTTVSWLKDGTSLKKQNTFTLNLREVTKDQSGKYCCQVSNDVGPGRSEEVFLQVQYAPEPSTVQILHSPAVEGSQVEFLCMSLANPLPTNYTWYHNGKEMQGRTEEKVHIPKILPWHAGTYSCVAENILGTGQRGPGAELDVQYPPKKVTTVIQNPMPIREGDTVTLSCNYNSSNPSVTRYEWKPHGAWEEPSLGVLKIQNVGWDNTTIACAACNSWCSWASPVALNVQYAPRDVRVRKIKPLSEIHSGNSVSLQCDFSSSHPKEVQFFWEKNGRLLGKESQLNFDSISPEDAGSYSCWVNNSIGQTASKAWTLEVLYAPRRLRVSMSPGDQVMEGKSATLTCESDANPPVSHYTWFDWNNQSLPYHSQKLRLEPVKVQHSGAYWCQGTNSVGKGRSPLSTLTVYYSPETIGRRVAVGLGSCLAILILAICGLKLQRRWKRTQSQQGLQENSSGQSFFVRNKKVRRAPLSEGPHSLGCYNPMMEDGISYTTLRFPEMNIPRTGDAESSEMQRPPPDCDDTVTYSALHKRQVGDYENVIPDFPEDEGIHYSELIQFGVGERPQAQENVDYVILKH

B1: Fab m972 (Fab, V domains shown)
VH: EVQLVQSGGGVVRPGGSLRLPCAASGFTFDDYGMSWVRQAPGKGLEWVSGINWNGGSTGYADSVKGRFTISRDNAKNSLYLQMNSLRAEDTALYHCARGGDDAFDIWGQGTMVTVSS
VL: RIVMTQSPGTLSVSPGETATLSCRASQSFSNMLAWYQQKSGQPPRLLIYGVSTRAAGVPARFSGSGSGTEFTLTISNLQSEDFAVYYCQQYGDWPRYTFGQGTKVERKR
notes: Human Fab from a naive Fab phage library, expressed in E. coli HB2151; also called m972 Fab
B2: IgG1 m972 (antibody, V domains shown)
VH: B1 VH
VL: B1 VL
notes: IgG1 format made by moving the heavy and light chains of the clone into pDR12, expressed in 293 free style cells; also called m972 IgG1; not shown: rest of the human IgG1 heavy chain constant region from vector pDR12

Columns and labels:
Soluble CD22 (PeproTech) [1] = biological target: T1, Soluble CD22 (PeproTech); test: ELISA, Fab on coated soluble CD22
Method: (§1) CD22 or CD22-Fc in PBS was coated to a 96-well plate overnight at 4° C. The plate was then washed with PBST (PBS+0.05% Tween) and blocked with PBST supplemented with 5% dry milk. Fab, scFv or IgG1 diluted in PBST+milk was added to the wells. The Fab and scFv binding was detected using the anti-His-IgG-HRP (Qiagen) and the IgG1 binding was detected using the anti-human Fc-IgG-HRP (Sigma, St. Louis, Mo.). After washing, ABTS substrate (Roche, Mannheim, Germany) was added to each well and OD₄₀₅ was recorded after five to ten minutes.

Soluble CD22 (PeproTech) [2] = biological target: T1, Soluble CD22 (PeproTech); test: ELISA, Fab on coated soluble CD22; reference Fab m971
[3] = biological target: T2, native, cell surface-associated CD22 on …; test: flow cytometry titration on BJAB cells, apparent affinity from median fluorescence against concentration
Method: SupT1, Raji, BJAB, and ST486 cells in suspension culture were collected by centrifugation and then re-suspended in ice-cold RPMI+10% FBS medium at a density of 1×10⁶/ml. ScFv or IgG1 at different concentrations were added to the cells. Cells were left on ice for half an hour before being washed with the same complete RPMI medium. […] For IgG1, anti-human-IgG-FITC was added to the cells. The cells were then washed with RPMI medium twice and re-suspended in PBS and subjected to flow cytometry analysis using the FACSCalibur™ (Becton Dickinson, San Jose, Calif.)
The binding characteristics of the two IgGs to cell surface-associated CD22 was further analyzed by using increasing concentrations of both IgGs against BJAB cells in a flow cytometry assay.

Soluble CD22 (PeproTech) [4] = biological target: T1, Soluble CD22 (PeproTech); test: ELISA, IgG1 on coated soluble CD22
Method: as §1

| Binder | EC50 (Soluble CD22 (PeproTech) [1]) | fold better binding than m971 (Soluble CD22 (PeproTech) [2]) | Kd [3] | EC50 (Soluble CD22 (PeproTech) [4]) |
| --- | --- | --- | --- | --- |
| B1 | 2 nM | 10 fold |  |  |
| B2 |  |  | ~15 nM | < 1 nM |
